This experiment addresses Flag-tagged NS5B (hepatitis C virus). In words: cell-based or functional assay.

This note sets out measurements from US20170002361A1.

As to “protein kinase C-related kinase 2 (PRK2) (from UniProt Q16513 1-984) (enzyme)”, the level of p-NS5B (32P-orthophosphate metabolic labeling, immunoprecipitation, autoradiography) after PRK2 silencing with siPRK2-1 was 55%.
